From US20260125454A1 (SHANGHAI JUNSHI BIOSCIENCES, published 2026)
Residue numbers refer to the chain shown, from its start.

T1: Biotin-huCGRPaSA (human, not fully specified; biotin (position not given))
T1 construct: exact construct ('aSA') not explained; also called Biotin CGRPaSA; full-length (1-37) CGRP
T1 peptide: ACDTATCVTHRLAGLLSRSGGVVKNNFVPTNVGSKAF

B1: hu29 (antibody, V domains shown)
VH: QVQLVQSGAEVKKPGASVKVSCKASGYTFIDFNMHWVRQAPGQRLEWMGYIYPYNGDVVYNQNFTNRVTLTVDTSSSTAYMELSSLRSEDTAVYYCAREGLGGYWGQGTLVTVSS
VL: EIVLTQSPATLSLSPGERATLSCKASQNIDYDGYAYLNWYQQKPGQAPRVLIYSVFNLESGIPARFSGSGSGTDFTLTISSLEPEDFAVYYCQQSNEFPYTFGQGTKLEIK
notes: 1F5 HC-1/1A2 LC2-3
B2: hu47 (antibody, V domains shown)
VH: B1 VH with I30T
VL: DIVLTQSPDSLAVSLGERATINCKASQNIDFDGYAYMNWYQHKPGQPPKVLIYSVFNLESGVPDRFSGSGSGTDFTLTISSLQAEDVAVYYCQQSHEVPYTFGQGTKLEIK
notes: 1F5 HC-2/1F5 LC1-4
B3: hu99 (antibody, V domains shown)
VH: B1 VH with I30T, F32Y, I51V, D57G, V58S, V59A, N63K, T65K, N66S
VL: B2 VL
notes: 2A2 HC-1/1F5 LC1-4
B4: hu70 (antibody, V domains shown)
VH: QVQLVQSGSELKKPGASVKVSCKASGYTFTDFNMHWVRQAPGQGLEWMGYIYPYNGDVVYNQNFTNRFVLSVDSSSSTAYLQISSLKAEDTAVYYCAREGLGGYWGQGTLVTVSS
VL: B1 VL with Y31F, L37M, N96H, F98V
notes: 1F5 HC-4/1F5 LC1-1
B5: hu81 (antibody, V domains shown)
VH: B1 VH with G56A, N63D
VL: B1 VL
notes: 1F5 HC-5/1A2 LC2-3
B6: hu52 (antibody, V domains shown)
VH: B1 VH with I30T
VL: DIQLTQSPSSLSASVGDRVTITCKASQNIDYGGYSYMNWYQQKPGKAPKVLIYSVFNLESGVPSRFSGSGSGTDFTLTISSLQPEDFATYYCQQSNEAPYTFGQGTKLEIK
notes: 1F5 HC-2/3H10 LC2-2
B7: hu33 (antibody, V domains shown)
VH: B1 VH
VL: DIVLTQSPASLAVSPGQRATITCKASQNIDFDGYAYMNWYQQKPGQPPKVLIYSVFNLESGVPARFSGSGSGTDFTLTINPVEADDTANYYCQQSHEVPYTFGQGTKLEIK
notes: 1F5 HC-1/1F5 LC1-3
B8: hu39 (antibody, V domains shown)
VH: B1 VH
VL: B6 VL
notes: 1F5 HC-1/3H10 LC2-2
B9: hu94 (antibody, V domains shown)
VH: B1 VH with I30T, F32Y, I51V, D57G, V58S, V59A, N63K, T65K, N66S
VL: B1 VL
notes: 2A2 HC-1/1A2 LC2-3
B10: hu98 (antibody, V domains shown)
VH: B1 VH with I30T, F32Y, I51V, D57G, V58S, V59A, N63K, T65K, N66S
VL: B7 VL
notes: 2A2 HC-1/1F5 LC1-3
B11: hu91 (antibody, V domains shown)
VH: B1 VH with G56A, N63D
VL: B6 VL
notes: 1F5 HC-5/3H10 LC2-2
B12: hu85 (antibody, V domains shown)
VH: B1 VH with G56A, N63D
VL: B7 VL
notes: 1F5 HC-5/1F5 LC1-3
B13: hu51 (antibody, V domains shown)
VH: B1 VH with I30T
VL: B2 VL with F31Y, D32G, A35S, H42Q, H96N, V98A
notes: 1F5 HC-2/3H10 LC2-1
B14: hu103 (antibody, V domains shown)
VH: B1 VH with I30T, F32Y, I51V, D57G, V58S, V59A, N63K, T65K, N66S
VL: B2 VL with F31Y, D32G, A35S, H42Q, H96N, V98A
notes: 2A2 HC-1/3H10 LC2-1
B15: hu68 (antibody, V domains shown)
VH: B4 VH
VL: B1 VL
notes: 1F5 HC-4/1A2 LC2-3
B16: hu67 (antibody, V domains shown)
VH: B4 VH
VL: B7 VL with F31Y, M37L, H96N, V98F
notes: 1F5 HC-4/1A2 LC2-2
B17: hu72 (antibody, V domains shown)
VH: B4 VH
VL: B7 VL
notes: 1F5 HC-4/1F5 LC1-3
B18: hu75 (antibody, V domains shown)
VH: B4 VH
VL: DVQLTQSPSFLSASVGDRVTITCQASQNIDGNTYMNWYQQKPGKAPKVLIYSIFNLESGVPSRFSGSGSGTEFTLTISSLQPEDFATYYCQQSNDYPYTFGQGTKLEIK
notes: 1F5 HC-4/2B8 LC2-2
B19: hu69 (antibody, V domains shown)
VH: B4 VH
VL: B6 VL with S10F, G32D, S35A, M37L, D74E, A98F
notes: 1F5 HC-4/1A2 LC2-4
B20: hu73 (antibody, V domains shown)
VH: B4 VH
VL: B2 VL
notes: 1F5 HC-4/1F5 LC1-4
B21: hu78 (antibody, V domains shown)
VH: B4 VH
VL: B6 VL
notes: 1F5 HC-4/3H10 LC2-2

Target: T1, Biotin-huCGRPaSA
Assay: ELISA, supernatant; relative to chimeric C245
How it was run: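 Plates coated with biotin-CGRPaSA at 1.0 μg/mL (90 min, 37°C) and blocked with 2% BSA. Humanized antibodies and chimeric C245 reference, 2.5-fold serial dilutions from 1000 ng/mL, bound 60 min at 37°C. Detection by HRP anti-human IgG (Fc), TMB 15 min, read at 450/620 nm.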

Binder	Relative binding activity, % [%]
B1	63
B2	10
B3	74
B4	116
B5	96
B6	25
B7	18
B8	51
B9	48
B10	76
B11	98
B12	76
B13	83
B14	88
B15	104
B16	115
B17	115
B18	84
B19	102
B20	106
B21	64
